Assay [1] concerns the target T1, FcγRIIb, extracellular domain with C-terminal His tag (human, UniProt P31994 43-217).
T1 construct: extracellular domain; made in FreeStyle293 cells; analyte in the Biacore assay; also called 2b; FcgRIIb
T1 sequence (looked up): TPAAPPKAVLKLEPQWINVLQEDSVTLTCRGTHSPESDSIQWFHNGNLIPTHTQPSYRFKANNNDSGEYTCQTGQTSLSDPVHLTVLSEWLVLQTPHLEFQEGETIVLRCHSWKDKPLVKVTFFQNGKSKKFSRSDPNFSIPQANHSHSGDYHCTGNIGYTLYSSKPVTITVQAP
The experiment in a line: SPR (Biacore), antibody captured, FcγR analyte; vs GpH7-A5/GpH7-B3/GpL16-k0 = 100. How it is done: (§1) The heterodimerized antibodies He Abs in which one of the H chains was introduced with an alteration were assayed for their binding activities to each activating FcγR and inhibitory FcγR according to the method described in Example 4. […] The activating FcγRs in FIGS. 26, 27, 28, and 29 are FcγRIa, FcγRIIa (R), FcγRIIa (H), and FcγRIIIa, respectively.
(§2) Analysis of interaction between objective antibody and the FcγR was carried out using Biacore T100 (GE Healthcare). HBS-EP+ (GE Healthcare) was used as the running buffer, and the measurement temperature was set to 25° C. Chips produced by immobilizing the antigen peptide by the amine coupling method to a Series S Sencor Chip CM5 (GE Healthcare), or alternatively, chips produced by allowing preliminarily biotinylated antigen peptides to interact with and immobilize onto a Series S Sensor Chip SA (certified) (GE Healthcare) were used. Antibodies of interest were captured onto an antigen peptide-immobilized chip, and allowed to interact to each FcγR diluted with running buffer. To regenerate and repeatedly use the chip, the antibodies captured on the chip were washed off by reacting 10 mM glycine-HCl, pH 1.5.
In general terms: Surface plasmon resonance follows binding to a sensor surface in real time, without labels.

The target of assay [2] is T2, FcγRIIa R (FcγRIIa allotype with Arg at position 131), extracellular domain with C-terminal His tag (human, UniProt P12318 34-217).
T2 construct: extracellular domain; made in FreeStyle293 cells; analyte in the Biacore assay; also called FcγRIIa type R; 2aR
T2 sequence (looked up): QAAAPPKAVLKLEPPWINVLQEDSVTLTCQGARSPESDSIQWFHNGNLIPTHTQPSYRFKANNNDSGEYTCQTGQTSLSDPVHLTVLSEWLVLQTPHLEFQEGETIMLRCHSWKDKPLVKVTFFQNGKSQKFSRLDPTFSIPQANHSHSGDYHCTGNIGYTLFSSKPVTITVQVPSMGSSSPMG
Described as above. The protocol:
as §1, §2

Another assay concerns the target T3, FcγRIIb (human, UniProt P31994 43-217).
T3 construct: extracellular domain; also called FcgRIIb; 2b
T3 sequence (looked up): T1 sequence (looked up)
Briefly: SPR (Biacore), relative binding.

In a further assay the target is T4, FcγRIIIa (human, UniProt P08637 17-208).
T4 construct: extracellular domain; also called FcgRIIIa; 3a
Briefly: SPR (Biacore), relative binding.

Assay [3] addresses T5, FcγRIIb, extracellular domain with C-terminal His tag (human, UniProt P31994 43-217).
T5 construct: extracellular domain; also called 2b; FcgRIIb; not shown: His tag at the C terminus
T5 sequence (looked up): T1 sequence (looked up)
The experiment in a line: SPR (Biacore), relative binding, GpH7-A5/GpH7-B3/GpL16-k0 = 100.

T4 sequence (P08637 17-208): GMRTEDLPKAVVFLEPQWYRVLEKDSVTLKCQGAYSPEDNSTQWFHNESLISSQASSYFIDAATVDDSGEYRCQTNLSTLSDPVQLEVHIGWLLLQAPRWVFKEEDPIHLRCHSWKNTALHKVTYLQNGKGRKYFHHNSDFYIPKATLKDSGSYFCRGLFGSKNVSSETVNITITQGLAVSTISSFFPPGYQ

B1: GpH7-A5/GpH7-B3 variant Y296_13S/GpL16-k0 (antibody, human IgG1, kappa)
heavy 1: not shown
heavy 2: not shown
light: DIVMTQSPLSLPVTPGEPASISCQASESLVHSNRNTYLHWYLQKPGQSPQLLIYKVSNRFSGVPDRFSGSGSGTDFTLKISRVEAEDVGVYYCSQNTHVPPTFGQGTKVEIERTVAAPSVFIFPPSDEQLKSGTASVVCLLNNFYPREAKVQWKVDNALQSGNSQESVTEQDSKDSTYSLSSTLTLSKADYEKHKVYACEVTHQGLSSPVTKSFNRGEC
notes: heterodimerized IgG1, mutation in one H chain only; also called He Ab
For B1, the He/Con_2b in assay [1] was 86.3 relative (HeCon Ab = 100). The He/Con_2aR in assay [2] was 102 relative (HeCon Ab = 100).

B2: GpH7-A5/GpH7-B3 variant L328_07I/GpL16-k0 (antibody, human IgG1, kappa)
heavy 1: not shown
heavy 2: not shown
light: B1 light
notes: mutation in the GpH7-B3 chain only; also called He Ab
Regarding B2, in the assay with FcγRIIb, the He/Con_2b is 160 % of GpH7-A5/GpH7-B3/GpL16-k0. Also, in the assay with FcγRIIIa, the He/Con_3a is 84 % of GpH7-A5/GpH7-B3/GpL16-k0.

B3: GpH7-A5/GpH7-B3 variant A327_09D/GpL16-k0 (antibody, human IgG1, kappa)
heavy 1: not shown
heavy 2: not shown
light: B1 light
notes: as for B2
For the molecule B3, the He/Con_2b with FcγRIIb was 172 % of GpH7-A5/GpH7-B3/GpL16-k0. Besides, the He/Con_3a with FcγRIIIa is 83.7 % of GpH7-A5/GpH7-B3/GpL16-k0.

B4: GpH7-A5/GpH7-B3 variant A327_10E/GpL16-k0 (antibody, human IgG1, kappa)
heavy 1: not shown
heavy 2: not shown
light: B1 light
notes: as for B2
Turning to B4, the He/Con_2b with FcγRIIb is 140 % of GpH7-A5/GpH7-B3/GpL16-k0. Further, the He/Con_3a in the assay with FcγRIIIa was 68.6 % of GpH7-A5/GpH7-B3/GpL16-k0.

B5: GpH7-A5/GpH7-B3 variant N325_09D/GpL16-k0 (antibody, human IgG1, kappa)
heavy 1: not shown
heavy 2: not shown
light: B1 light
notes: as for B2
Take B5: the He/Con_2b in the assay with FcγRIIb was 124 % of GpH7-A5/GpH7-B3/GpL16-k0. For the same molecule, the He/Con_3a in the assay with FcγRIIIa is 48 % of GpH7-A5/GpH7-B3/GpL16-k0.

B6: GpH7-A5/GpH7-B3 variant Y300_18N/GpL16-k0 (antibody, human IgG1, kappa)
heavy 1: not shown
heavy 2: not shown
light: B1 light
notes: as for B1
For B6, in assay [1], the He/Con_2b was 82.7 relative (HeCon Ab = 100). Also, the He/Con_2aR in assay [2] is 100 relative (HeCon Ab = 100).

B7: GpH7-A5/GpH7-B3 variant S267_12R/GpL16-k0 (antibody, human IgG1, kappa)
heavy 1: not shown
heavy 2: not shown
light: B1 light
notes: He Ab; alteration in one H chain only; also called He Ab
Take B7: the He/Con_2b in assay [3] is 11.3 % of control.

B8: GpH7-A5/GpH7-B3 variant Y296_19Q/GpL16-k0 (antibody, human IgG1, kappa)
heavy 1: not shown
heavy 2: not shown
light: B1 light
notes: as for B1
With B8, the He/Con_2b in assay [1] was 89.3 relative (HeCon Ab = 100). In addition, the He/Con_2aR in assay [2] was 102 relative (HeCon Ab = 100).

B9: GpH7-A5/GpH7-B3 variant L328_20W/GpL16-k0 (antibody, human IgG1, kappa)
heavy 1: not shown
heavy 2: not shown
light: B1 light
notes: as for B2
Take B9: the He/Con_2b with FcγRIIb was 235 % of GpH7-A5/GpH7-B3/GpL16-k0. The He/Con_3a with FcγRIIIa was 37.4 % of GpH7-A5/GpH7-B3/GpL16-k0.

B10: GpH7-A5/GpH7-B3 variant L328_06M/GpL16-k0 (antibody, human IgG1, kappa)
heavy 1: not shown
heavy 2: not shown
light: B1 light
notes: as for B2
As for B10, in the assay with FcγRIIb, the He/Con_2b was 142 % of GpH7-A5/GpH7-B3/GpL16-k0. Besides, in the assay with FcγRIIIa, the He/Con_3a is 78.6 % of GpH7-A5/GpH7-B3/GpL16-k0.

B11: GpH7-A5/GpH7-B3 variant N325_20W/GpL16-k0 (antibody, human IgG1, kappa)
heavy 1: not shown
heavy 2: not shown
light: B1 light
notes: as for B2
Consider B11, for which the He/Con_2b with FcγRIIb was 169 % of GpH7-A5/GpH7-B3/GpL16-k0. In addition, the He/Con_3a with FcγRIIIa is 32.8 % of GpH7-A5/GpH7-B3/GpL16-k0.

B12: GpH7-A5/GpH7-B3 variant L328_10E/GpL16-k0 (antibody, human IgG1, kappa)
heavy 1: not shown
heavy 2: not shown
light: B1 light
notes: as for B2
Consider B12, for which the He/Con_2b in the assay with FcγRIIb is 172 % of GpH7-A5/GpH7-B3/GpL16-k0. The He/Con_3a with FcγRIIIa was 53.4 % of GpH7-A5/GpH7-B3/GpL16-k0.

B13: GpH7-A5/GpH7-B3 variant N325_03V/GpL16-k0 (antibody, human IgG1, kappa)
heavy 1: not shown
heavy 2: not shown
light: B1 light
notes: as for B2
On to B13, for which, in the assay with FcγRIIb, the He/Con_2b was 111 % of GpH7-A5/GpH7-B3/GpL16-k0. In addition, the He/Con_3a with FcγRIIIa was 30.3 % of GpH7-A5/GpH7-B3/GpL16-k0.

B14: GpH7-A5/GpH7-B3 variant L328_15Y/GpL16-k0 (antibody, human IgG1, kappa)
heavy 1: not shown
heavy 2: not shown
light: B1 light
notes: as for B2
For the molecule B14, the He/Con_2b in the assay with FcγRIIb was 193 % of GpH7-A5/GpH7-B3/GpL16-k0. In addition, the He/Con_3a with FcγRIIIa was 68.3 % of GpH7-A5/GpH7-B3/GpL16-k0.

B15: GpH7-A5/GpH7-B3 variant Y300_04F/GpL16-k0 (antibody, human IgG1, kappa)
heavy 1: not shown
heavy 2: not shown
light: B1 light
notes: as for B1
Turning to B15, in assay [1], the He/Con_2b was 94.8 relative (HeCon Ab = 100). For the same molecule, the He/Con_2aR in assay [2] is 108 relative (HeCon Ab = 100).

B16: GpH7-A5/GpH7-B3 variant I332_04F/GpL16-k0 (antibody, human IgG1, kappa)
heavy 1: not shown
heavy 2: not shown
light: B1 light
notes: as for B2
With B16, the He/Con_2b with FcγRIIb was 104 % of GpH7-A5/GpH7-B3/GpL16-k0. For the same molecule, the He/Con_3a with FcγRIIIa was 97.6 % of GpH7-A5/GpH7-B3/GpL16-k0.

B17: GpH7-A5/GpH7-B3 variant A327_18N/GpL16-k0 (antibody, human IgG1, kappa)
heavy 1: not shown
heavy 2: not shown
light: B1 light
notes: as for B2
Consider B17, for which the He/Con_2b in the assay with FcγRIIb was 113 % of GpH7-A5/GpH7-B3/GpL16-k0. Also, the He/Con_3a in the assay with FcγRIIIa is 61.1 % of GpH7-A5/GpH7-B3/GpL16-k0.

B18: GpH7-A5/GpH7-B3 variant A330_01G/GpL16-k0 (antibody, human IgG1, kappa)
heavy 1: not shown
heavy 2: not shown
light: B1 light
notes: as for B2
Turning to B18, the He/Con_2b in the assay with FcγRIIb was 104 % of GpH7-A5/GpH7-B3/GpL16-k0. Besides, the He/Con_3a with FcγRIIIa was 89.1 % of GpH7-A5/GpH7-B3/GpL16-k0.

Source of the values: patent US20150344570A1 (published 2015).
